# Measured values: patent publication US20160083465A1 (AVEO PHARMACEUTICALS, published 2016)
# B1: 01G06 (antibody, mouse IgG1, kappa)
# heavy: EVLLQQSGPELVKPGASVKIPCKASGYTFTDYNMDWVKQSHGKSLEWIGQINPNNGGIFFNQKFKGKATLTVDKSSNTAFMEVRSLTSEDTAVYYCAREAITTVGAMDYWGQGTSVTVSSAKTTPPSVYPLAPGSAAQTNSMVTLGCLVKGYFPEPVTVTWNSGSLSSGVHTFPAVLQSDLYTLSSSVTVPSSTWPSETVTCNVAHPASSTKVDKKIVPRDCGCKPCICTVPEVSSVFIFPPKPKDVLTITLTPKVTCVVVDISKDDPEVQFSWFVDDVEVHTAQTQPREEQFNSTFRSVSELPIMHQDWLNGKEFKCRVNSAAFPAPIEKTISKTKGRPKAPQVYTIPPPKEQMAKDKVSLTCMITDFFPEDITVEWQWNGQPAENYKNTQPIMDTDGSYFVYSKLNVQKSNWEAGNTFTCSVLHEGLHNHHTEKSLSHSPGK
# light: DIQMTQSPASLSASVGETVTITCRTSENLHNYLAWYQQKQGKSPQLLVYDAKTLADGVPSRFSGSGSGTQYSLKINSLQPEDFGSYYCQHFWSSPYTFGGGTKLEIKRADAAPTVSIFPPSSEQLTSGGASVVCFLNNFYPKDINVKWKIDGSERQNGVLNSWTDQDSKDSTYSMSSTLTLTKDEYERHNSYTCEATHKTSTSPIVKSFNRNEC
# notes: Murine monoclonal from hybridoma, IgG1 kappa; also called antibody 01G06
# B2: 06C11 (antibody, mouse IgG1, kappa)
# heavy: QVTLKESGPGILQPSQTLSLTCSFSGFSLNTYGMGVSWIRQPSGKGLEWLAHIYWDDDKRYNPSLKSRLTISKDASNNRVFLKITSVDTADTATYYCAQRGYDDYWGYWGQGTLVTISAAKTTPPSVYPLAPGSAAQTNSMVTLGCLVKGYFPEPVTVTWNSGSLSSGVHTFPAVLQSDLYTLSSSVTVPSSTWPSETVTCNVAHPASSTKVDKKIVPRDCGCKPCICTVPEVSSVFIFPPKPKDVLTITLTPKVTCVVVDISKDDPEVQFSWFVDDVEVHTAQTQPREEQFNSTFRSVSELPIMHQDWLNGKEFKCRVNSAAFPAPIEKTISKTKGRPKAPQVYTIPPPKEQMAKDKVSLTCMITDFFPEDITVEWQWNGQPAENYKNTQPIMDTDGSYFVYSKLNVQKSNWEAGNTFTCSVLHEGLHNHHTEKSLSHSPGK
# light: DIVMTQSQKFMSTSVGDRVSVTCKASQNVGTNVAWFQQKPGQSPKALIYSASYRYSGVPDRFTGSGSGTDFILTISNVQSEDLAEYFCQQYNNYPLTFGAGTKLELKRADAAPTVSIFPPSSEQLTSGGASVVCFLNNFYPKDINVKWKIDGSERQNGVLNSWTDQDSKDSTYSMSSTLTLTKDEYERHNSYTCEATHKTSTSPIVKSFNRNEC
# notes: Murine monoclonal from hybridoma, IgG1 kappa; also called antibody 06C11
# B3: 14F11 (antibody, mouse IgG1, kappa)
# heavy: QVTLKESGPGILQPSQTLSLTCSFSGFSLSTYGMGVGWIRQPSGKGLEWLADIWWDDDKYYNPSLKSRLTISKDTSSNEVFLKIAIVDTADTATYYCARRGHYSAMDYWGQGTSVTVSSAKTTPPSVYPLAPGSAAQTNSMVTLGCLVKGYFPEPVTVTWNSGSLSSGVHTFPAVLQSDLYTLSSSVTVPSSTWPSETVTCNVAHPASSTKVDKKIVPRDCGCKPCICTVPEVSSVFIFPPKPKDVLTITLTPKVTCVVVDISKDDPEVQFSWFVDDVEVHTAQTQPREEQFNSTFRSVSELPIMHQDWLNGKEFKCRVNSAAFPAPIEKTISKTKGRPKAPQVYTIPPPKEQMAKDKVSLTCMITDFFPEDITVEWQWNGQPAENYKNTQPIMDTDGSYFVYSKLNVQKSNWEAGNTFTCSVLHEGLHNHHTEKSLSHSPGK
# light: DIVMTQSQKFMSTSVGDRVSVTCKASQNVGTNVAWYQQKPGQSPKALIYSPSYRYSGVPDRFTGSGSGTDFTLTISNVQSEDLAEYFCQQYNSYPHTFGGGTKLEMKRADAAPTVSIFPPSSEQLTSGGASVVCFLNNFYPKDINVKWKIDGSERQNGVLNSWTDQDSKDSTYSMSSTLTLTKDEYERHNSYTCEATHKTSTSPIVKSFNRNEC
# notes: Murine monoclonal from hybridoma, IgG1 kappa; also called antibody 14F11
# Legend:
# Test in all cases: SPR Biacore T100, 37 C, antibody captured by anti-mouse IgG, antigen in solution
# [1] = molecular target: T1, 6xHis tagged recombinant human GDF15 (His-rhGDF15) (human, UniProt Q99988 197-308)
# T1 construct: Bought from R&D Systems
# T1 sequence: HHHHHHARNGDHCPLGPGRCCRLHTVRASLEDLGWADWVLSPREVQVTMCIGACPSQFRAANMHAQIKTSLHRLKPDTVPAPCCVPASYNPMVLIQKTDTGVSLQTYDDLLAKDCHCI
# Method: (§1) Rabbit anti-mouse IgGs (GE Healthcare) were immobilized on carboxymethylated dextran CM4 sensor chips (GE Healthcare) by amine coupling, according to a standard protocol. Analyses were performed at 37° C. using PBS containing 0.05% surfactant P20 as running buffer. The antibodies were captured in individual flow cells at a flow rate of 10 μL/minute. Injection time was varied for each antibody to yield an Rmax between 30 and 60 RU. 250 μg/mL mouse Fc (Jackson ImmunoResearch, West Grove, Pa.) was injected at 30 μL/minute for 120 seconds to block non-specific binding of capture antibodies to mouse Fc portion of the recombinant GDF15 protein when needed. […] The dissociation phase was monitored for up to 1500 seconds. The surface was then regenerated with two 60-second injections of 10 mM Glycine-HCl, pH 1.7, at a flow rate of 30 μL/minute.
# (§2) Kinetic parameters were determined using the kinetic function of the BIAevaluation software (GE Healthcare) with double reference subtraction.
# cleaved-rhGDF15 = molecular target: T2, cleaved-rhGDF15 (human, UniProt Q99988 197-308)
# T2 sequence: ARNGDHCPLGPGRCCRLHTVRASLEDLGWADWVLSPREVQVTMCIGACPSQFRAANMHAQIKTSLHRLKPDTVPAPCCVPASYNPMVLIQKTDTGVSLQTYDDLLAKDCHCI
# Method: as §1, §2
# [2] = molecular target: T3, untagged recombinant human GDF15 (rhGDF15 (Peprotech)) (human, UniProt Q99988 197-308, limits assumed)
# T3 construct: Bought from Peprotech
# T3 sequence (looked up): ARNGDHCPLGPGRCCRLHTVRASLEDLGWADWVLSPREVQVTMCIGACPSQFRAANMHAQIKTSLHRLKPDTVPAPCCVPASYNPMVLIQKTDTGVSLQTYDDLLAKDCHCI
# Method: as §1, §2
# [3] = molecular target: T4, mouse IgG1 Fc-mature human GDF15 fusion protein (mFc-rhGDF15) (mouse; human)
# T4 construct: Made in CHOK1SV cells, purified by Protein A and size exclusion; also called mouse Fc fused to human GDF15
# T4 chain: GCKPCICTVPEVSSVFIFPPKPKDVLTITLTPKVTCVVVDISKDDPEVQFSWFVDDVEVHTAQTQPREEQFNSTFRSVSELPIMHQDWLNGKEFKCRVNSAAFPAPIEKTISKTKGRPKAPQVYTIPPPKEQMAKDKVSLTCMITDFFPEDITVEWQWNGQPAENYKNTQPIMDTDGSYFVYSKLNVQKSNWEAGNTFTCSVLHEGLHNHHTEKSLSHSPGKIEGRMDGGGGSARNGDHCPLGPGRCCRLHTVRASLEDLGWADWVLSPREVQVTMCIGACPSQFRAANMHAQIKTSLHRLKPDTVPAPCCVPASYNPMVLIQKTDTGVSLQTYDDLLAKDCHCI
# Method: as §1, §2
Binder,Kd [1],koff [1],kon [1],Kd (cleaved-rhGDF15),koff (cleaved-rhGDF15),kon (cleaved-rhGDF15),Kd [2],koff [2],kon [2],Kd [3],koff [3],kon [3]
B1,0.081 nM,0.0011 s⁻¹,1.4e+07 M⁻¹ s⁻¹,0.11 nM,0.00086 s⁻¹,7.5e+06 M⁻¹ s⁻¹,0.093 nM,0.0019 s⁻¹,2.1e+07 M⁻¹ s⁻¹,0.21 nM,0.0007 s⁻¹,5.6e+06 M⁻¹ s⁻¹
B2,0.051 nM,0.0015 s⁻¹,2.9e+07 M⁻¹ s⁻¹,0.17 nM,0.002 s⁻¹,1.2e+07 M⁻¹ s⁻¹,0.21 nM,0.0046 s⁻¹,2.2e+07 M⁻¹ s⁻¹,0.17 nM,0.00068 s⁻¹,4.5e+06 M⁻¹ s⁻¹
B3,0.096 nM,0.00042 s⁻¹,4.4e+06 M⁻¹ s⁻¹,0.11 nM,0.0006 s⁻¹,5.7e+06 M⁻¹ s⁻¹,0.071 nM,0.0022 s⁻¹,3.1e+07 M⁻¹ s⁻¹,0.22 nM,0.00033 s⁻¹,1.7e+06 M⁻¹ s⁻¹
